Measurements from US20250326843A1 (HARBOUR BIOMED SHANGHAI, published 2025).

T1: murine B7-H4 (murine, UniProt Q7TSP5 25-257)
T1 construct: whole, on cells; also called mB7-H4
T1 sequence (looked up): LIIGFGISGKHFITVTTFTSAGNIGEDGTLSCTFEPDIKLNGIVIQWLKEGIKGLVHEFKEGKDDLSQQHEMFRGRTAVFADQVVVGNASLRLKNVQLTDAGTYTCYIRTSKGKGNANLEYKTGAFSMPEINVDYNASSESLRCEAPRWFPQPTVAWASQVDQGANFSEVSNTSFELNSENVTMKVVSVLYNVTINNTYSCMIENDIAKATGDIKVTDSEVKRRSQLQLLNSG

T2: human B7-H4 (human, UniProt Q7Z7D3 25-282)
T2 construct: whole, on cells; also called huB7-H4; B7-H4 on CHO-K1/huB7-H4, SK-BR-3 and MDA-MB-468 cells
T2 sequence (looked up): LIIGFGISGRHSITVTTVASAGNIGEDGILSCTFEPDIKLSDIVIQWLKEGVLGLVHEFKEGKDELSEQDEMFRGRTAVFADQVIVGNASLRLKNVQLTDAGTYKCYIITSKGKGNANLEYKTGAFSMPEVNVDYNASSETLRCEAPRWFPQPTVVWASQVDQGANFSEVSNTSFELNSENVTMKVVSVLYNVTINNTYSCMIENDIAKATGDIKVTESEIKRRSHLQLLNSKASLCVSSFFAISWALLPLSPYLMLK

B1: B7-H4×CD3 bispecific antibody PR003733 (bispecific antibody, human IgG1, lambda, L234A L235A)
light: QAVVTQEPSLTVSPGGTVTLTCRSSTGAVTTSNYANWVQQKPGQAPRGLIGGTNKRAPWTPARFSGSLLGDKAALTLLGAQPEDEAEYFCALWYSNLWVFGGGTKLTVLGQPKAAPSVTLFPPSSEELQANKATLVCLISDFYPGAVTVAWKADSSPVKAGVETTTPSKQSNNKYAASSYLSLTPEQWKSHRSYSCQVTHEGSTVEKTVAPTECS
heavy: not shown
chain: EIVMTQSPASLSVSPGERATLSCRASQSVSSNLAWYQQKPGQAPRLLIYGASTRATGIPARVSGGGSGTEFTLTISSLQSEDFAVYYCQQYKNWPFTFGPGTKLEIKGGGGSGGGGSGGGGSGGGGSQVQLVQSGAEVKKPGSSMRVSCKASEDTFSSYAISWVRQAPGQGLEWMGGTAPIFGTTNYAQKFQGRVTITADKSTSTAYMELSSLRSEDTAVYYCARGGPYFDYWGQGTLVTVSSASEPKSSDKTHTCPPCPAPEAAGGPSVFLFPPKPKDTLMISRTPEVTCVVVDVSHEDPEVKFNWYVDGVEVHNAKTKPREEQYNSTYRVVSVLTVLHQDWLNGKEYKCKVSNKALPAPIEKTISKAKGQPREPQVCTLPPSREEMTKNQVSLSCAVKGFYPSDIAVEWESNGQPENNYKTTPPVLDSDGSFFLVSKLTVDKSRWQQGNVFSCSVMHEALHNHYTQKSLSLSPGK
notes: Fab-Fc-scFv asymmetric structure (structure A); CD3 arm from PR001848, B7-H4 arm from PR003366
B2: B7-H4×CD3 bispecific antibody PR003899 (bispecific antibody, human IgG1, lambda, L234A L235A)
light: B1 light
heavy: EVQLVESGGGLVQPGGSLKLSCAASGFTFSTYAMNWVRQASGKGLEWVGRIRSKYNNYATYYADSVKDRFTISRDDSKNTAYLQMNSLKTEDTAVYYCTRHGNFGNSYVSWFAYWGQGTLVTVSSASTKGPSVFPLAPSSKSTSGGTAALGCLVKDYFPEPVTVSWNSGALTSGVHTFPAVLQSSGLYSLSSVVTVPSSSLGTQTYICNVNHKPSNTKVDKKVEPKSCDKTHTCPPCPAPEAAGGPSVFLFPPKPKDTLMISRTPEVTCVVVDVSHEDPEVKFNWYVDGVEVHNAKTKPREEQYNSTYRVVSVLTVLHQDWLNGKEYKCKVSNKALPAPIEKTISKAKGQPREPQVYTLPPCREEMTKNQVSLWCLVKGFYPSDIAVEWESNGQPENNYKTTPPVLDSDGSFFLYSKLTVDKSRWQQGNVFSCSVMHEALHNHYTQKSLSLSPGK
chain: B1 chain
notes: Fab-Fc-scFv asymmetric structure (structure A); CD3 arm from PR003886, B7-H4 arm from PR003366

Experiments:
murine B7-H4 = molecular target: T1, murine B7-H4; assay: flow cytometry on CHO-K1/mB7-H4 cells
Source text: (§1) The CHO-K1 cell strain CHO-K1/huB7-H4 over-expressing human B7-H4 (produced in-house by Harbour BioMed), the CHO-K1 cell strain CHO-K1/cynoB7-H4 over-expressing cynomolgus monkey B7-H4 (produced in-house by Harbour BioMed), the CHO-K1 cell strain CHO-K1/mB7-H4 over-expressing murine B7-H4 (produced in-house by Harbour BioMed), SK-BR-3 and MDA-MB-468 cells were digested. T cells were isolated using the human T cell isolation kit (Miltenyi, #130-096-535) as described in the method of the instruction, and resuspended with PBS containing 2% FBS. The cell density was adjusted to 1×10⁶ cells/mL. The cells were seeded onto a 96-well V-bottom plate (Coming, #3894) at 100 μL/well, followed by the addition of test antibodies diluted in a 3-fold gradient at a concentration that was 2 times the final concentration, each at 100 μL/well. The cells were incubated away from light at 4° C. for 2 h. Thereafter, the cells in each well were rinsed twice with 100 μL of pre-cooled PBS containing 2% BSA, and centrifuged at 500 g at 4° C. for 5 min, and then the supernatant was discarded. […] Finally, the cells in each well were resuspended with 200 μL of pre-cooled PBS containing 2% BSA, and the fluorescence signal values were read using an ACEA Novocyte3000 flow cytometer.

human B7-H4 = molecular target: T2, human B7-H4; assay: flow cytometry on CHO-K1/huB7-H4 cells
Source text: as §1

Binder | binding result (murine B7-H4) | binding result (human B7-H4)
B1 | binds | –
B2 | binds | binds
